# Laboratory results: patent publication US20230192897A1 (NUMAB THERAPEUTICS, published 2023)
# Numbering of substitutions follows the chain as printed.
# B1: PRO1476 (other)
# chain: DIQMTQSPSSLSASVGDRVTITCQASQSINNVLAWYQQKPGKAPKLLIYRASTLASGVPSRFSGSGSGTDFTLTISSLQPEDFATYYCQSSYGNYGDFGCGTKVTVLGGGGGSQSQLQESGPGLVKPSETLSLTCKASGFSFSSGYDMCWVRQPPGKGLEWIACVVAGSVDITYYASWAKGRVTISKDSSKNQVSLKLSSVTAADTAVYFCARKDAYSDAFNLWGQGTLVTVSSGGGGSGGGGSGGGGSGGGGSFQLTQSPSSLSASVGDRVTITCQASQSINDYLAWYQQKPGKSPKLLIYKASTLASGVPSRFSGSGSGTDFTLTISSLQPEDFATYYCQQGYIITDIDNVFGTGTKVTVLGGGGGSEVQLVESGGGLVQPGGSLRLSCAASGFSFSNSYWICWVRQAPGKCLEWIGCTFVGSSDSTYYANWAKGRFTISRDNSKNTVYLQMNSLRAEDTAVYYCARHPSDAVYGYANNLWGQGTLVTVSSGGGGSGGGGSIQMTQSPSSLSASVGDRVTITCQSSESVYSNNQLSWYQQKPGQPPKLLIYDASDLASGVPSRFSGSGSGTDFTLTISSLQPEDFATYYCAGGFSSSSDTAFGGGTKLTVLGGGGGSGGGGSGGGGSGGGGSEVQLVESGGGLVQPGGSLRLSCAASGFSLSSNAMGWVRQAPGKGLEYIGIISVGGFTYYASWAKGRFTISRDNSKNTVYLQMNSLRAEDTATYFCARDRHGGDSSGAFYLWGQGTLVTVSS
# notes: trispecific scDb-scFv; also called 33-03-G02 sc03 scDb-i/38-02-A04 sc13 scDb-o/19-01-H04 sc03 scFv
# B2: PRO1432 (other)
# chain: B1 chain with S115V, F210Y, F255I, L257M, S296A
# notes: trispecific scDb-scFv; also called 33-03-G02 sc18 scDb-i/38-02-A04 sc13 scDb-o/19-01-H04 sc03 scFv
# B3: PRO1431 (other)
# chain: DIQMTQSPSSLSASVGDRVTITCQASQSINDYLAWYQQKPGKAPKLLIYKASTLASGVPSRFSGSGSGTDFTLTISSLQPEDFATYYCQQGYIITDIDNVFGTGTKVTVLGGGGGSEVQLVESGGGLVQPGGSLRLSCAASGFSFSNSYWICWVRQAPGKCLEWIGCTFVGSSDSTYYANWAKGRFTISRDNSKNTVYLQMNSLRAEDTAVYYCARHPSDAVYGYANNLWGQGTLVTVSSGGGGSGGGGSGGGGSGGGGSIQMTQSPSSLSASVGDRVTITCQASQSINNVLAWYQQKPGKAPKLLIYRASTLASGVPSRFSGSGSGTDFTLTISSLQPEDFATYYCQSSYGNYGDFGCGTKVTVLGGGGGSQVQLQESGPGLVKPSETLSLTCKASGFSFSSGYDMCWVRQPPGKGLEWIACVVAGSVDITYYASWAKGRVTISKDSSKNQVSLKLSSVTAADTAVYYCARKDAYSDAFNLWGQGTLVTVSSGGGGSGGGGSIQMTQSPSSLSASVGDRVTITCQSSESVYSNNQLSWYQQKPGQPPKLLIYDASDLASGVPSRFSGSGSGTDFTLTISSLQPEDFATYYCAGGFSSSSDTAFGGGTKLTVLGGGGGSGGGGSGGGGSGGGGSEVQLVESGGGLVQPGGSLRLSCAASGFSLSSNAMGWVRQAPGKGLEYIGIISVGGFTYYASWAKGRFTISRDNSKNTVYLQMNSLRAEDTATYFCARDRHGGDSSGAFYLWGQGTLVTVSS
# notes: trispecific scDb-scFv; also called 38-02-A04 sc13 scDb-i/33-03-G02 sc18 scDb-o/19-01-H04 sc03 scFv
# B4: PRO1473 (other)
# chain: B3 chain with I2F, M4L, A43S, V374S, Y469F
# notes: trispecific scDb-scFv; also called 38-02-A04 sc13 scDb-i/33-03-G02 sc03 scDb-o/19-01-H04 sc03 scFv
# Target: T1, Fc tagged human PDL1 (human, UniProt Q9NZQ7 19-239)
# T1 construct: Bought (Sino Biological, cat. 10084-H02H); captured on the SPR chip; also called PDL1-Fc chimeric protein
# Assay: SPR
# Description: (§1) Affinity to PDL1 of the different species was determined by SPR measurements using a Biacore T200 device (GE Healthcare). An antibody specific for the Fc region of human IgGs was immobilized on a sensor chip (CM5 sensor chip, GE Healthcare) by amine-coupling. For all formats, with the exception of the Fc containing Morrison formats, PDL1-Fc chimeric protein from different species were captured by the immobilized antibody.
# (§2) Three-fold serial dilutions of the molecules specific for PDL1 (0.12-90 nM) were injected into the flow cells for three minutes and dissociation was monitored for 10 minutes. After each injection cycle, surfaces were regenerated with one injection of a 3 M MgCl₂ solution. The apparent dissociation (kd) and association (kₐ) rate constants and the apparent dissociation equilibrium constant (KD) were calculated using one-to-one Langmuir binding model. Affinity to CD137 of the different species was determined using the identical setup as for PDL1 with the exception that CD137-Fc chimeric protein from different species were captured by the immobilized antibody.
Kd [nM],koff [s⁻¹],kon [M⁻¹ s⁻¹],Binder
0.009,3.1e-05,–,B1
–,4.4e-05,4.2e+06,B2
–,4.5e-05,–,B3
0.0082,2.9e-05,3.6e+06,B4

# Target: T2, Fc tagged human CD137 (human, UniProt Q07011 24-186)
# T2 construct: also called CD137-Fc chimeric protein
# Assay: SPR
# Description: as §1, §2
Kd [nM],koff [s⁻¹],kon [M⁻¹ s⁻¹],Binder
1.1,0.00037,350000,B1
0.75,0.00045,600000,B2
1.7,0.00075,450000,B3
2,0.0006,310000,B4

# Target: human PDL1 on cells (human, UniProt Q9NZQ7 19-290)
# Assay: cell-based or functional assay
"IC50 (ng/ml), NF-AT potency assay, +HSA [ng/mL]","rel. IC50 (avelumab/test), +HSA [fold]",Binder
53.5,0.66,B1
18.5,1.98,B2
9.83,3.73,B3
35.2,1.11,B4

# Target: T3, CD137 on Jurkat NFkB reporter cells (human, UniProt Q07011 24-255)
# Assay: cell-based or functional assay
"IC50 (ng/ml) (EC50 in Table 16C), NFkB reporter, HCC827 + IFNg, 24 h, +HSA [ng/mL]","rel. IC50 (PRO1186/test), 24 h [fold]",Binder
3.9,1.83,B1
21.9,0.75,B2
18.4,1.02,B3
0.91,3.55,B4

# Target: T3, CD137 on Jurkat NFkB reporter cells
# Assay: cell-based or functional assay
# Remark: another data set of the same source
"Area under the curve (calculated using PRO885 normalized data), first line (6 h by the order of the upper part)","Area under the curve (calculated using PRO885 normalized data), second line (24 h by the order of the upper part)","EC50 [ng/ml], NF-kB reporter, HCC827 + IFNg, +HSA, 6 h [ng/mL]","IC10/EC90 ratio, first line (6 h by the order of the upper part)","IC10/EC90 ratio, second line (24 h by the order of the upper part)","Maximum NF-kB activation (rel. to PRO1186) [%], first line (6 h by the order of the upper part) [%]","Maximum NF-kB activation (rel. to PRO1186) [%], second line (24 h by the order of the upper part) [%]","rel. Area under the curve (AUCsample/AUCPRO1186), first line (6 h by the order of the upper part) [fold]","rel. Area under the curve (AUCsample/AUCPRO1186), second line (24 h by the order of the upper part) [fold]","rel. EC50 (EC50, PRO1186/EC50, sample), NF-kB reporter, 6 h [fold]",Binder
93.5,135,5.97,34.2,35.7,36.4,76.1,0.39,0.59,2.02,B1
111,150,19.4,26.8,3.57,63.4,83.8,0.59,0.81,0.67,B2
83.2,119,21,5.03,16.1,55.3,68.6,0.4,0.54,0.68,B3
52.3,188,2.4,53.9,15.7,36.2,67.4,0.31,0.73,2.3,B4

# Same assay, conditions: not given
"rel. EC50 (EC50, PRO1186/EC50, sample), NF-kB reporter, 24 h [fold]","rel. IC10/EC90 (ratio of sample/ratio of PRO1186), first line (6 h by the order of the upper part) [fold]","rel. IC10/EC90 (ratio of sample/ratio of PRO1186), second line (24 h by the order of the upper part) [fold]",Binder
1.83,2.66,1.63,B1
0.75,0.36,0.16,B2
1.02,0.3,1.74,B3
3.55,1.01,0.12,B4

# Target: T4, biotinylated human PDL1 (human, UniProt Q9NZQ7 19-238, limits assumed, biotinylated)
# T4 construct: also called biotinylated PDL1
# Assay: competition ELISA B7.1/PDL1
# Description: Plates were blocked for 1 hour at room temperature by adding 300 μl of PBS with 1% BSA and 0.2% tween (dilution buffer) to each well. […] The mixtures were pre-incubated for 1 hour at room temperature under gentle agitation on a rotating mixer (21 rpm) and added to the microplates after 3 wash cycles with 450 μl wash buffer per well. Plates were incubated for 1.5 hours at room temperature under gentle agitation, then 10 ng/ml streptavidin-polyHRP40 was added to each microplate well after three washes with 450 μl of wash buffer per well. After 1 h incubation at RT, plates were washed three times with 450 μl wash buffer and TMB substrate solution was added. The enzymatic reaction was stopped after 6 minutes by addition of 1 M HCl and absorbance was measured at 450 nm using 690 nm as a reference wavelength. For calculation of IC₅₀ values, a four-parameter logistic (4PL) curve fit was performed in Graph Pad Prism using reference subtracted values.
IC50 [ng/mL],rel. IC50 (IC50 avelumab/IC50 test) [fold],Binder
9.49,1.1,B1
2.83,0.99,B2
3.31,0.84,B3
8.89,1.49,B4

# Target: T4, biotinylated human PDL1
# Assay: competition ELISA PD-1/PDL1
# Description: Plates were blocked for 1 hour at room temperature by adding 300 μl of PBS with i%BSA and 0.2% tween (dilution buffer) to each well. Inhibitors were serially diluted in 3-fold steps to final concentrations ranging from 300 to 0.005 ng/ml in dilution buffer containing 1 ng/ml biotinylated human PDL1. The mixtures were pre-incubated for 1 hour at room temperature under gentle agitation on a rotating mixer (21 rpm) and added to the microplates after 3 wash cycles with 450 μl wash buffer per well. Plates were incubated for 1.5 hours at room temperature under gentle agitation, then 10 ng/ml streptavidin-polyHRP40 was added to each microplate well after three washes with 450 μl of wash buffer per well. After 1 h incubation at RT, plates were washed three times with 450 μl wash buffer and TMB substrate solution was added. The enzymatic reaction was stopped after 6 minutes by addition of 1 M HCl and absorbance was measured at 450 nm using 690 nm as a reference wavelength. For calculation of IC₅₀ values, a four-parameter logistic (4PL) curve fit was performed in Graph Pad Prism using reference subtracted values.
IC50 [ng/mL],rel. IC50 (IC50 avelumab/IC50 test) [fold],Binder
2.84,0.8,B1
3.26,0.43,B2
2.75,0.51,B3
4.14,0.56,B4
